Experiments:
FGFR3 = FGFR3 (UniProt P22607); assay: phosphorylation enrichment, bacterial display (enrichment ratio); higher = better substrate or ligand; peptides without Tyr show the background
Fer (mouse) = assay: as above
Fes = Fes (UniProt P07332); assay: as above
MERTK = MERTK (UniProt Q12866); assay: as above
c-Abl (mouse) = assay: as above
Jak2 = Jak2 (UniProt O60674); assay: as above
FGFR1 = FGFR1 (UniProt P11362); assay: as above
EPHB1 = EPHB1 (UniProt P54762); assay: as above
Hck = Hck (UniProt P08631); assay: as above
c-Src = assay: as above
EPHB2 = EPHB2 (UniProt P29323); assay: as above
AncSZ = assay: as above
Fyn = Fyn (UniProt P06241); assay: as above
SHP2-C SH2 = assay: SH2 binding enrichment of the phosphorylated peptide, bacterial display (enrichment ratio); higher = better substrate or ligand; peptides without Tyr show the background
c-Src SH2 = assay: as above
Grb2 SH2 = Grb2 SH2 (UniProt P62993); assay: as above
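For SH2 binding enrichment of the phosphorylated peptide, bacterial display in this document: peptide library displayed on the E. coli surface as eCPX fusions, selected cells deep-sequenced, score is each peptide's frequency after selection divided by its frequency in the input.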
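For phosphorylation enrichment, bacterial display in this document: 11-residue human phosphosite peptides and single-mutation variants displayed on the E. coli surface, counted by deep sequencing, each peptide's frequency after selection divided by its frequency in the unselected input library; frequency after pTyr selection over input frequency; kinase dosed for 20-30% of maximal phosphorylation in three min.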

Sequence of FGFR3 (P22607 whole entry, looked up): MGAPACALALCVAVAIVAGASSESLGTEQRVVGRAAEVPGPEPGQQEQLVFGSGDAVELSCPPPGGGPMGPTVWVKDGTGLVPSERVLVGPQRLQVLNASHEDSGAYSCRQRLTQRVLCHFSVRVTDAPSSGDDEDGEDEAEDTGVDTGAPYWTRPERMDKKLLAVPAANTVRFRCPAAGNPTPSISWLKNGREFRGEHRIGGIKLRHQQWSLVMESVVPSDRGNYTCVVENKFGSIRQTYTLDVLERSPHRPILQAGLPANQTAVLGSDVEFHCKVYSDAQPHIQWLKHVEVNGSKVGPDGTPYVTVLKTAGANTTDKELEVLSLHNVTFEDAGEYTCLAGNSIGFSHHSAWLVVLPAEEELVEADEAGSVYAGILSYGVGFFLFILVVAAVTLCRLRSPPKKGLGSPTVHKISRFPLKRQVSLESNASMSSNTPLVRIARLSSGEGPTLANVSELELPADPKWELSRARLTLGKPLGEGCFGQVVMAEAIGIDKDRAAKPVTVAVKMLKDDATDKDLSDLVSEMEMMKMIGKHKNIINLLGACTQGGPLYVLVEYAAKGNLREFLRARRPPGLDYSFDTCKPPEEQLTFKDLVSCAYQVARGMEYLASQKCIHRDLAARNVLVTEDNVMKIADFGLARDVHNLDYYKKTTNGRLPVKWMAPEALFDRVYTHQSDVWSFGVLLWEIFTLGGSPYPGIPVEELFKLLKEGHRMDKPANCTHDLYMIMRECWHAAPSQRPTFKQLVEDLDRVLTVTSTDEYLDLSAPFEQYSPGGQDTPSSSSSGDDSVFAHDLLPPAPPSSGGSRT
Sequence of Hck (P08631 whole entry, looked up): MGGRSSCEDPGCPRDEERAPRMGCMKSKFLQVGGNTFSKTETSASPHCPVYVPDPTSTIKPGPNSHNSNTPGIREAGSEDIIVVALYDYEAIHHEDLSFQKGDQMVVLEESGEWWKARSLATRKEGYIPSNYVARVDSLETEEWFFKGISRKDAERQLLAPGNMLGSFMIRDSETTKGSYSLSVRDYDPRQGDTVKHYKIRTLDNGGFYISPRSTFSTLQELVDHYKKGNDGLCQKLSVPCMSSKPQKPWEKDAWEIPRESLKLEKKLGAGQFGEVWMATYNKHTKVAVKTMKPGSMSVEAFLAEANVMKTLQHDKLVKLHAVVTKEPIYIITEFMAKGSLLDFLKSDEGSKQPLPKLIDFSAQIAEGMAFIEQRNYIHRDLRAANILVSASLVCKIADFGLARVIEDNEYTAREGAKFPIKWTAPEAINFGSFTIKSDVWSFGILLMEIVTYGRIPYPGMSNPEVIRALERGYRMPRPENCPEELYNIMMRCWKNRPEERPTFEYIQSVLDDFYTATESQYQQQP
Sequence of EPHB2 (P29323 whole entry, looked up): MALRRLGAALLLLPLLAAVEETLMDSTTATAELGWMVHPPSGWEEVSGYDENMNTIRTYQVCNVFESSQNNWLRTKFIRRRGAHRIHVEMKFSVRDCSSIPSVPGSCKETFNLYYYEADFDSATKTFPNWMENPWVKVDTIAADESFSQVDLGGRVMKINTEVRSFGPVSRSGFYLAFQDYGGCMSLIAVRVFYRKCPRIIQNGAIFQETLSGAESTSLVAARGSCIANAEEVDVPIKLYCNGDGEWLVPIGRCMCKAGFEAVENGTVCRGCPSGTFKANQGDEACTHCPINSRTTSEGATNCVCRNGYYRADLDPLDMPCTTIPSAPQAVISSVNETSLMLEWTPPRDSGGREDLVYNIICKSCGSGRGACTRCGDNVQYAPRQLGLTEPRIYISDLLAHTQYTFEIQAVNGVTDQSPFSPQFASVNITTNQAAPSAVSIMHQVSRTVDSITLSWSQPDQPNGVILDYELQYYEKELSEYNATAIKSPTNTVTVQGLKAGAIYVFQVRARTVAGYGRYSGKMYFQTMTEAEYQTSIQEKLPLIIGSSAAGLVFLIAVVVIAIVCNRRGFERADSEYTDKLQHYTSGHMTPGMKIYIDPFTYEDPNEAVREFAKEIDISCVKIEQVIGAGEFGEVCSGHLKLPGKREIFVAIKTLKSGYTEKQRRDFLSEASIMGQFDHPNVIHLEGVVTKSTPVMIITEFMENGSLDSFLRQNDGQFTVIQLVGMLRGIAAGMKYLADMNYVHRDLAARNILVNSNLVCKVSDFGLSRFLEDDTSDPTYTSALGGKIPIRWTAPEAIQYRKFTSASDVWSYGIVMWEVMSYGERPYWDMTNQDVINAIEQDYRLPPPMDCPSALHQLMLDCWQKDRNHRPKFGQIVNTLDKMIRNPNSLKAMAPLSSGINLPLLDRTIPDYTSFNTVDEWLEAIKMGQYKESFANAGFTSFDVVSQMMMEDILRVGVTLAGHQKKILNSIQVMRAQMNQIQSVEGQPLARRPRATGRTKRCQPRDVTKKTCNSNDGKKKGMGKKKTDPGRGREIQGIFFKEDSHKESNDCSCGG
Sequence of Grb2 SH2 (P62993 whole entry, looked up, the tested form may be a part): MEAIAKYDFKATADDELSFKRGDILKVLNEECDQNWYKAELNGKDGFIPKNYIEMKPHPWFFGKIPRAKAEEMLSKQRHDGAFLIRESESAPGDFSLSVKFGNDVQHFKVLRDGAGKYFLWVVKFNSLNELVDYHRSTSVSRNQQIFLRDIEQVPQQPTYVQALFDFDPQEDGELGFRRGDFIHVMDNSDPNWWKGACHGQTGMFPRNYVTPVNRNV
Sequence of FGFR1 (P11362 whole entry, looked up): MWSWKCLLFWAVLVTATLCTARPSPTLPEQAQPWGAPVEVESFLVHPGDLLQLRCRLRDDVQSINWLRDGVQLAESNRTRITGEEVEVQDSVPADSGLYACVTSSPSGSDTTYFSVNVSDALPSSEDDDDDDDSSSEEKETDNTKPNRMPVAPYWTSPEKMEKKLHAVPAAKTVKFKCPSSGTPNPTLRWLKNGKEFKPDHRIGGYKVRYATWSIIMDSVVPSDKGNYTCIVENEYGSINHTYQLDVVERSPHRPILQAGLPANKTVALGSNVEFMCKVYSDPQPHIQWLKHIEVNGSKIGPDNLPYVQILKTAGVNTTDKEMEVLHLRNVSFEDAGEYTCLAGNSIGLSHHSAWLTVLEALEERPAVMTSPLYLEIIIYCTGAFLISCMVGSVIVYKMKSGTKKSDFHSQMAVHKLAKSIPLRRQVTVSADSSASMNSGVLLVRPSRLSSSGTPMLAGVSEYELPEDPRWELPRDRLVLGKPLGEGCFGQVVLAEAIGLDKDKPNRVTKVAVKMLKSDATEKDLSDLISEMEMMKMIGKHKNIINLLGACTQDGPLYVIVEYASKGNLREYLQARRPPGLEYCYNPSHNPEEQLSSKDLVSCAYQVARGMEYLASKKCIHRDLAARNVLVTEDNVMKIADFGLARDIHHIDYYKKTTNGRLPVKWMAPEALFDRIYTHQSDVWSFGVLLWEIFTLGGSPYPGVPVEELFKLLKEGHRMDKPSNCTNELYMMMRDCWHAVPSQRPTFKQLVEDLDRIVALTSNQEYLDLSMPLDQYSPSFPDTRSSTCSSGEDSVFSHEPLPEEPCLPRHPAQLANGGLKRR
Sequence of EPHB1 (P54762 whole entry, looked up): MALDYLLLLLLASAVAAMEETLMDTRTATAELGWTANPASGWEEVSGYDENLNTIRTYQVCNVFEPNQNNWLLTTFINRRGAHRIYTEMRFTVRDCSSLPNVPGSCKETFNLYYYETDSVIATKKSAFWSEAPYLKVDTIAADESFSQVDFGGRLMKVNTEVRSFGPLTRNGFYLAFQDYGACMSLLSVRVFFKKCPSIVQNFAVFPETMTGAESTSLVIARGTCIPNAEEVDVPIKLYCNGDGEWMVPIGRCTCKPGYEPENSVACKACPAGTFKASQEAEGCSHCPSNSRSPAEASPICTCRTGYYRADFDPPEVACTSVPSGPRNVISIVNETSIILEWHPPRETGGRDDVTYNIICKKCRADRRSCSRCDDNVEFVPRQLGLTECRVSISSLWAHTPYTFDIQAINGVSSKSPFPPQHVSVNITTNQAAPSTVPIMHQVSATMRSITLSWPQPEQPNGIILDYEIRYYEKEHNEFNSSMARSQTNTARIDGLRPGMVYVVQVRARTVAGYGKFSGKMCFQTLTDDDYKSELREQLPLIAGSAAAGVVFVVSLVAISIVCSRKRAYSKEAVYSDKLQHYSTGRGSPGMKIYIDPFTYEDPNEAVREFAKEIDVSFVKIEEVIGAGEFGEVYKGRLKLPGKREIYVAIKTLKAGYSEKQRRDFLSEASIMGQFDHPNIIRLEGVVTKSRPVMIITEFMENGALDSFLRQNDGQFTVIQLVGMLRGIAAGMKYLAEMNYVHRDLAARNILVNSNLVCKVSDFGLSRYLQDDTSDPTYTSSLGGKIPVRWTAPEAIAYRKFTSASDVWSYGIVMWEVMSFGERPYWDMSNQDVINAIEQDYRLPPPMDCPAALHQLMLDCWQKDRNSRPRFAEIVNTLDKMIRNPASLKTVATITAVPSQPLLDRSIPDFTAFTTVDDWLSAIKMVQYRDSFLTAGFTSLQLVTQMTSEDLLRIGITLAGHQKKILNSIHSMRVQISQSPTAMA
Sequence of Fyn (P06241 whole entry, looked up): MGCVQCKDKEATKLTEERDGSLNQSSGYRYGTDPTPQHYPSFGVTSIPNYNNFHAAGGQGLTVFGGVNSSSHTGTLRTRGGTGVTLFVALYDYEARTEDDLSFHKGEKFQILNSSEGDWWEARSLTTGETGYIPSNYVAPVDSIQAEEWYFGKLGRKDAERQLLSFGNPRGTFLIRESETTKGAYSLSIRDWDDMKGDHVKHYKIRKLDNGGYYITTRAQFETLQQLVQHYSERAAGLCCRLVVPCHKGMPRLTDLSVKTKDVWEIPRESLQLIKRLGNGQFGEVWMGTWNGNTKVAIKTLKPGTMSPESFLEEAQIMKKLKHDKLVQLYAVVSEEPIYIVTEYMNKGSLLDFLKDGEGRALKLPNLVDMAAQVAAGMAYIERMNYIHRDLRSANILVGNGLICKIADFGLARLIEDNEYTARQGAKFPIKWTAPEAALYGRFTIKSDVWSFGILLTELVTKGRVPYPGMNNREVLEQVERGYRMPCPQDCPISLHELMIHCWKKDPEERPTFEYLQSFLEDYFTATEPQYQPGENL

Sequence | phosphorylation enrichment (FGFR3) | phosphorylation enrichment (Fer (mouse)) | phosphorylation enrichment (Fes) | phosphorylation enrichment (MERTK) | phosphorylation enrichment (c-Abl (mouse)) | phosphorylation enrichment (Jak2) | phosphorylation enrichment (FGFR1) | phosphorylation enrichment (EPHB1) | phosphorylation enrichment (Hck) | phosphorylation enrichment (c-Src) | phosphorylation enrichment (EPHB2) | phosphorylation enrichment (AncSZ) | phosphorylation enrichment (Fyn) | SH2 binding enrichment (SHP2-C SH2) | SH2 binding enrichment (c-Src SH2) | SH2 binding enrichment (Grb2 SH2)
LFCVHYFHRTF [SRD5A2_Y91] | 1.97 | 1.47 | 2.73 | 0.989 | 2.35 | 2.73 | 1.04 | 1.26 | 1.16 | 1.14 | 1.24 | 2.32 | 1.04 | 1.08 | 0.918 | 1.3
LFIDSYEKDVA [PGM1_Y521_YF] | 1.48 | 0.767 | 2.05 | 0.848 | 1.36 | 1.22 | 0.855 | 1.34 | 0.816 | 0.694 | 0.755 | 2.09 | 1.41 | 0.728 | 0.787 | 0.835
LFMGDYVGRGF [PPP2CA_Y86_D88G_YF] | 0.739 | 0.412 | 1.04 | 0.456 | 1.1 | 3.61 | 0.919 | 2.4 | 1.53 | 2.31 | 1.48 | 1.38 | 1.5 | 0.817 | 0.487 | 1.01
LGGAMYFLEAE [PKHD1_Y452_YF] | 1.51 | 0.623 | 1.8 | 0.709 | 0.784 | 1.34 | 0.62 | 0.999 | 1.07 | 1.01 | 0.984 | 1.53 | 1.13 | 0.75 | 0.802 | 0.868
LGGSPYPRVPV [FGFR1_Y701_G703R] | 0.471 | 0.444 | 0.55 | 0.4 | 0.483 | 0.507 | 0.47 | 0.356 | 0.412 | 0.426 | 0.426 | 0.435 | 0.429 | 0.836 | 0.469 | 0.784
LGPDGYSTVDR [ARVCF_Y901] | 0.81 | 0.709 | 1.31 | 0.553 | 0.909 | 1.01 | 0.617 | 0.318 | 0.405 | 0.395 | 0.594 | 2.11 | 0.679 | 1.18 | 29.2 | 0.927
LGPSDYFGEIV [PRKAR1A_Y323_A328V] | 1.42 | 0.586 | 0.913 | 0.529 | 0.746 | 1.06 | 1.49 | 0.717 | 0.577 | 0.781 | 0.722 | 1.41 | 0.655 | 0.738 | 0.654 | 1.03
LGSWTYTKTVS [ROS1_Y144] | 1.44 | 0.8 | 2.38 | 0.519 | 0.965 | 1.61 | 1.19 | 2.19 | 1.05 | 0.774 | 1.04 | 1.94 | 0.86 | 0.64 | 0.415 | 0.817
LIHTKYPQLLP [AHCY_Y143] | 0.573 | 0.395 | 0.81 | 0.6 | 0.575 | 0.679 | 0.639 | 0.642 | 0.428 | 0.379 | 0.562 | 0.808 | 0.449 | 0.725 | 0.42 | 0.54
LITILYIGFLG [KCNQ1_Y267_T265I] | 1.31 | 0.895 | 2.55 | 1.43 | 2.13 | 2.73 | 0.72 | 0.835 | 1.08 | 1.24 | 1.18 | 2.28 | 0.809 | 1.26 | 0.845 | 0.879
LITTLYIDFLG [KCNQ1_Y267_G269D] | 1.19 | 0.749 | 1.96 | 0.704 | 1.07 | 1.39 | 1.09 | 1.15 | 0.818 | 1.22 | 1.06 | 1.42 | 1.41 | 0.96 | 0.698 | 1.13
LKDEDYLKDTV [HAUS3_Y582_I586T] | 1.63 | 0.928 | 3.04 | 1.04 | 1.37 | 2.34 | 1.88 | 1.7 | 1.67 | 0.838 | 1.67 | 3.63 | 1.99 | 0.501 | 0.478 | 0.708
LKEIRYPPYTD [ALDH3B2_Y362_H361R] | 0.702 | 0.541 | 1.06 | 0.518 | 0.749 | 0.827 | 0.539 | 0.348 | 0.678 | 0.494 | 0.589 | 0.761 | 0.31 | 0.729 | 0.555 | 0.883
LKGQVYILGGE [ASS1_Y359_R363G] | 1.28 | 1.02 | 1.93 | 1.05 | 1.32 | 1.62 | 1.06 | 1.13 | 0.824 | 1.13 | 1.07 | 1.33 | 0.995 | 0.812 | 0.529 | 0.952
LKKLEYLNLPL [LRRC6_Y70_A74P] | 1.12 | 0.47 | 0.741 | 0.423 | 0.622 | 0.694 | 1.26 | 0.531 | 0.518 | 0.374 | 0.441 | 0.818 | 0.364 | 1.4 | 0.69 | 10.3
LKSEMYQKLLK [RGS13_Y146] | 0.845 | 0.456 | 1.18 | 0.348 | 0.733 | 0.92 | 0.749 | 0.709 | 0.78 | 0.425 | 0.925 | 1.34 | 0.56 | 0.523 | 0.544 | 0.832
LLAGLYRGQAL [FGFR4_Y390] | 0.526 | 0.683 | 0.833 | 0.553 | 0.591 | 0.72 | 0.459 | 0.433 | 0.571 | 0.452 | 0.594 | 0.857 | 0.494 | 0.882 | 0.508 | 0.63

Sequence | phosphorylation enrichment (FGFR3) | phosphorylation enrichment (Fer (mouse)) | phosphorylation enrichment (Fes) | phosphorylation enrichment (MERTK) | phosphorylation enrichment (c-Abl (mouse)) | phosphorylation enrichment (Jak2) | phosphorylation enrichment (FGFR1) | phosphorylation enrichment (EPHB1) | phosphorylation enrichment (Hck) | phosphorylation enrichment (c-Src) | phosphorylation enrichment (EPHB2) | phosphorylation enrichment (AncSZ) | phosphorylation enrichment (Fyn) | SH2 binding enrichment (SHP2-C SH2) | SH2 binding enrichment (c-Src SH2) | SH2 binding enrichment (Grb2 SH2)
LLDGEYFTLQI [TP53_Y327_P322L] | 8.15 | 1.99 | 5.59 | 1.28 | 3.69 | 8.38 | 10.9 | 1.95 | 2.24 | 7.23 | 1.49 | 5.89 | 3.2 | 0.462 | 0.6 | 1.08
LLIVEYAKYGS [RET_Y806] | 0.942 | 0.868 | 2.4 | 0.75 | 1.03 | 1.82 | 0.804 | 1.12 | 0.759 | 1.23 | 0.872 | 1.52 | 0.622 | 1.28 | 1.49 | 1.83
LLNPRYNLPLD [TOM1L1_Y109] | 0.767 | 0.62 | 0.952 | 1.16 | 1.32 | 0.83 | 0.645 | 0.54 | 0.741 | 0.59 | 0.822 | 1.14 | 0.63 | 0.827 | 1.16 | 0.856
LLSVAYKNVVG [YWHAG_Y49] | 0.709 | 0.551 | 0.935 | 0.454 | 1.05 | 0.649 | 0.589 | 0.645 | 0.665 | 0.418 | 0.64 | 1.02 | 0.585 | 0.518 | 0.434 | 0.932
LLSVAYQNVVG [YWHAG_Y49_K50Q] | 1.08 | 0.83 | 1.25 | 0.519 | 0.832 | 1.22 | 1.34 | 1.19 | 0.632 | 0.443 | 1.07 | 1.23 | 0.757 | 2.77 | 2.53 | 21.1
LLVVLYKYRCF [PSEN1_Y154_Y159F] | 1.12 | 0.911 | 2.42 | 0.626 | 2.02 | 2.16 | 1.11 | 1.23 | 0.825 | 0.523 | 1.03 | 1.32 | 0.762 | 1.61 | 1.29 | 1.63
LQEQNYLAVDS [FAM114A1_Y115] | 3.19 | 4.67 | 2.5 | 1.17 | 0.817 | 1.39 | 3.67 | 6.07 | 0.946 | 0.673 | 2.83 | 2.1 | 1.47 | 0.53 | 0.644 | 0.725
LQIPMYEVQWK [KIT_Y553_K550I] | 0.848 | 2.54 | 2.04 | 7.37 | 1.01 | 0.721 | 1.14 | 22.6 | 2.24 | 1.55 | 24.1 | 2.5 | 2.45 | 1.06 | 0.661 | 0.884
LQLLGYRPVFS [CHST6_Y358_YF] | 0.707 | 0.57 | 1.42 | 0.502 | 0.865 | 1.15 | 0.535 | 0.598 | 0.697 | 0.487 | 0.793 | 1.17 | 0.451 | 0.626 | 0.68 | 0.806
LQTFRYHGLSM [PDHA1_Y289_H292L_YF] | 1.38 | 1.27 | 1.21 | 0.747 | 0.589 | 0.732 | 0.835 | 1.05 | 0.578 | 0.356 | 0.822 | 1.26 | 1.07 | 0.448 | 0.486 | 0.886
LSAPWYLNRIS [HEXA_Y421] | 0.533 | 0.359 | 0.797 | 0.331 | 0.447 | 0.699 | 0.429 | 0.562 | 0.46 | 0.362 | 0.511 | 0.791 | 0.371 | 1.19 | 0.697 | 1.19
LSNPAYRLLLA [DDR1_Y513] | 1.19 | 0.981 | 1.15 | 0.568 | 0.917 | 1.99 | 1.17 | 0.945 | 1.14 | 1.21 | 1.1 | 1.27 | 0.954 | 1.01 | 0.582 | 1.06
LSQQVYRVNLS [FAT4_Y480_F475L] | 0.631 | 0.572 | 0.751 | 0.792 | 0.637 | 0.647 | 0.428 | 0.532 | 0.521 | 0.836 | 0.622 | 0.821 | 0.616 | 0.67 | 0.422 | 0.764
LTDLRYKVSGP | 1.13 | 0.588 | 1.11 | 0.464 | 0.684 | 0.687 | 0.43 | 0.518 | 0.594 | 0.255 | 0.957 | 0.644 | 0.537 | 0.82 | 0.407 | 1.04
LTECGYSFTTT [ACTB_Y198_R196C] | 0.754 | 0.733 | 1.15 | 0.417 | 0.708 | 0.889 | 0.674 | 0.592 | 0.555 | 0.671 | 0.781 | 1.09 | 0.582 | 0.602 | 0.736 | 0.574
LTSKPYAFTAW [NDUFS1_Y236_R241W] | 0.511 | 0.448 | 0.717 | 1.12 | 0.503 | 0.682 | 0.413 | 0.421 | 0.353 | 0.4 | 0.544 | 0.575 | 0.371 | 0.992 | 0.749 | 1.01
